From patent US10344077

Legend:
Centromere B [1] = target: T1, Centromere B (UniProt P07199); assay: AtheNA, Ab 25 ug/ml
T1 sequence (looked up): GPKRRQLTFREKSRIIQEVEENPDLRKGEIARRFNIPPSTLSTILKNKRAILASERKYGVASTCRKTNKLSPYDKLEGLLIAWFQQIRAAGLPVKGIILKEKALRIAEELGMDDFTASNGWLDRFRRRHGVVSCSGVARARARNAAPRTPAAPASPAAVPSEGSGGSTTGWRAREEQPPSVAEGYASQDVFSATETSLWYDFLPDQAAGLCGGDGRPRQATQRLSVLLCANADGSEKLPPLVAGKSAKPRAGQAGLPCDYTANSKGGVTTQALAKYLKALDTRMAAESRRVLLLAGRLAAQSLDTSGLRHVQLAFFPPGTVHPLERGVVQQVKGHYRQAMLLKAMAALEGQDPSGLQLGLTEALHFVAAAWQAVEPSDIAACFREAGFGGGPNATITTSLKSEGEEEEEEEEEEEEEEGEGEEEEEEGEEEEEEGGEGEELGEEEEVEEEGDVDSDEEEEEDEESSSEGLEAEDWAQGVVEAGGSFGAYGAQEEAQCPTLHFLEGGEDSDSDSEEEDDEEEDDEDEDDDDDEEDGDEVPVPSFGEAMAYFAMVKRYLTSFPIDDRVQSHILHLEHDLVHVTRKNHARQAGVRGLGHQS

Histones [2] = assay: AtheNA, Ab 25 ug/ml
RNP (ribonucleoprotein) [3] = assay: AtheNA, Ab 25 ug/ml
Sm (Smith antigen) [4] = assay: AtheNA, Ab 25 ug/ml
Jo-1 [5] = target: T2, Jo-1 (UniProt P12081); assay: AtheNA, Ab 25 ug/ml
T2 sequence (looked up): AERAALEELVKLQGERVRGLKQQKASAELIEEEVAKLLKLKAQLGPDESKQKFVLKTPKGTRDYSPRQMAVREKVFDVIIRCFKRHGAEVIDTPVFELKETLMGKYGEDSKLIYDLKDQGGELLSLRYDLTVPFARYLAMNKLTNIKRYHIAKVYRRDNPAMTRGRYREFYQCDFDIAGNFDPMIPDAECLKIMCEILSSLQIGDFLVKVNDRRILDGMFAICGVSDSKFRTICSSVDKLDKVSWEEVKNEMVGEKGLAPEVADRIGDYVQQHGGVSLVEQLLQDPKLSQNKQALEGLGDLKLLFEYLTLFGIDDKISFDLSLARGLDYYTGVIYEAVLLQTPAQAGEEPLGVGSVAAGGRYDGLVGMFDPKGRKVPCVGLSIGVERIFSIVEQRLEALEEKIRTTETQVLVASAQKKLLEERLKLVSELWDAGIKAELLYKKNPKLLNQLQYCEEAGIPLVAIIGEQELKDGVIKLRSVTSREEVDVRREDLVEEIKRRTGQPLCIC

SSA [6] = assay: AtheNA, Ab 25 ug/ml
Scl-70 [7] = target: Scl-70 (UniProt P11387); assay: AtheNA, Ab 25 ug/ml
AtheNA, Ab 6.25 ug/ml = substrate: T3, SSB (UniProt P05455); assay: AtheNA, Ab 6.25 ug/ml
T3 sequence (looked up): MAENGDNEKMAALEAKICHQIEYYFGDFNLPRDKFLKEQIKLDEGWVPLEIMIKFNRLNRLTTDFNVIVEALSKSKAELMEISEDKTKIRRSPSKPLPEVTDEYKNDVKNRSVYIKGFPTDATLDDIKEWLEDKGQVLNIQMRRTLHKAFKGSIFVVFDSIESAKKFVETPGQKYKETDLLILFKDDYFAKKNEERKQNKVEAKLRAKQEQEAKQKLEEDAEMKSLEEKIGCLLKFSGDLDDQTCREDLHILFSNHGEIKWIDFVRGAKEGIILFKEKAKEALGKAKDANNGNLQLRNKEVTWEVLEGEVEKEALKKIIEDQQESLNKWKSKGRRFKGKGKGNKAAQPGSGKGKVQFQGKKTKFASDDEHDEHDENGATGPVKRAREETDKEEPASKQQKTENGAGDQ

AtheNA, Ab 12.5 ug/ml = substrate: T3, ; assay: AtheNA, Ab 12.5 ug/ml
AtheNA, Ab 25 ug/ml = substrate: T3, ; assay: AtheNA, Ab 25 ug/ml
Centromere B [8] = target: T1, Centromere B; assay: AtheNA, Ab 50 ug/ml
Histones [9] = assay: AtheNA, Ab 50 ug/ml
Sm (Smith antigen) [10] = assay: AtheNA, Ab 50 ug/ml
Jo-1 [11] = target: T2, Jo-1; assay: AtheNA, Ab 50 ug/ml
SSA [12] = assay: AtheNA, Ab 50 ug/ml
AtheNA, Ab 50 ug/ml = substrate: T3, ; assay: AtheNA, Ab 50 ug/ml
Centromere B [13] = target: T1, Centromere B; assay: AtheNA, Ab 12.5 ug/ml
Histones [14] = assay: AtheNA, Ab 12.5 ug/ml
RNP (ribonucleoprotein) [15] = assay: AtheNA, Ab 12.5 ug/ml
Sm (Smith antigen) [16] = assay: AtheNA, Ab 12.5 ug/ml
Jo-1 [17] = target: T2, Jo-1; assay: AtheNA, Ab 12.5 ug/ml
SSA [18] = assay: AtheNA, Ab 12.5 ug/ml
Scl-70 [19] = target: Scl-70 (UniProt P11387); assay: AtheNA, Ab 12.5 ug/ml
Centromere B [20] = target: T1, Centromere B; assay: AtheNA, Ab 6.25 ug/ml
Histones [21] = assay: AtheNA, Ab 6.25 ug/ml
RNP (ribonucleoprotein) [22] = assay: AtheNA, Ab 6.25 ug/ml
Sm (Smith antigen) [23] = assay: AtheNA, Ab 6.25 ug/ml
Jo-1 [24] = target: T2, Jo-1; assay: AtheNA, Ab 6.25 ug/ml
SSA [25] = assay: AtheNA, Ab 6.25 ug/ml
Scl-70 [26] = target: Scl-70 (UniProt P11387); assay: AtheNA, Ab 6.25 ug/ml

Scl-70, sequence (P11387 2-765 limits assumed): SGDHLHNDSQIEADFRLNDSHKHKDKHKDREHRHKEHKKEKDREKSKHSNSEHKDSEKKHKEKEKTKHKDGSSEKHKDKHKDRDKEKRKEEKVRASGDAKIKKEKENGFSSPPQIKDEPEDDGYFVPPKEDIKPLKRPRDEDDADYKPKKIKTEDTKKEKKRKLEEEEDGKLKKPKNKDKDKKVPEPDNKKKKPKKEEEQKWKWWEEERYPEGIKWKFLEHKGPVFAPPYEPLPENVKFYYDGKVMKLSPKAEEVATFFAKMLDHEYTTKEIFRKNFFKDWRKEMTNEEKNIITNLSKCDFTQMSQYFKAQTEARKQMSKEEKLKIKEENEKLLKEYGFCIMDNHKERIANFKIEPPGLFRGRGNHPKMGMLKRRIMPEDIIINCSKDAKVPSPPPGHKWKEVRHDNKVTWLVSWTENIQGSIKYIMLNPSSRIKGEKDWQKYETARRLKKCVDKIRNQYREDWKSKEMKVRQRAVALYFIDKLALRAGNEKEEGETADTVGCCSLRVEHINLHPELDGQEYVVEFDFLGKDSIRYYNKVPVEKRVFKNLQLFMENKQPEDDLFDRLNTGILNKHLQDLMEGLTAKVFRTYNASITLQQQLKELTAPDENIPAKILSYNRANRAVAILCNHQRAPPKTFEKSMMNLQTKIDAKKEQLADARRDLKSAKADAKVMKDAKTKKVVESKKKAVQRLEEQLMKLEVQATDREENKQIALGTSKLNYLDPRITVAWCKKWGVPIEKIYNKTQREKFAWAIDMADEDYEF

B1: CH236_4A/293i (antibody, from a related filing, V domains shown)
VH: QVQLVQSGAAVKRPGASVTISCRASGYTFTTYYIHWVRQAPGQRLELMGMIDPSRGRTDYAQKFQGRVTMSRDTSTSTLYMELRSLRPDDTALYYCVRNVGTEGSLLHYDYWGQGTLVTVSS
VL: EIVLTQSPATLSVSPGERVTLSCRASQSVRNNLAWYRQKRGQAPRLLIYGASTRATGIPARFSGSGSGTEFTLTISSMQSEDFAVYYCQQYNNWWTFGQGTKVEIK
Question: What does the source list for B1?
Answer: Athena reading (relative luminescence units) (Centromere B [1]): 129; Athena reading (relative luminescence units) (Histones [2]): 193; Athena reading (relative luminescence units) (RNP (ribonucleoprotein) [3]): 69; Athena reading (relative luminescence units) (Sm (Smith antigen) [4]): 165; Athena reading (relative luminescence units) (Jo-1 [5]): 72; Athena reading (relative luminescence units) (SSA [6]): 224; Athena reading (relative luminescence units) (Scl-70 [7]): 62; Athena reading (relative luminescence units) (AtheNA, Ab 6.25 ug/ml): 15; Athena reading (relative luminescence units) (AtheNA, Ab 12.5 ug/ml): 63; Athena reading (relative luminescence units) (AtheNA, Ab 25 ug/ml): 175; Athena reading (relative luminescence units) (Centromere B [8]): 84; Athena reading (relative luminescence units) (Histones [9]): 138; Athena reading (relative luminescence units) (Sm (Smith antigen) [10]): 128; Athena reading (relative luminescence units) (Jo-1 [11]): 145; Athena reading (relative luminescence units) (SSA [12]): 177; Athena reading (relative luminescence units) (AtheNA, Ab 50 ug/ml): 207; Athena reading (relative luminescence units) (Centromere B [13]): 233; Athena reading (relative luminescence units) (Histones [14]): 234; Athena reading (relative luminescence units) (RNP (ribonucleoprotein) [15]): 78; Athena reading (relative luminescence units) (Sm (Smith antigen) [16]): 258; Athena reading (relative luminescence units) (Jo-1 [17]): 19; Athena reading (relative luminescence units) (SSA [18]): 185; Athena reading (relative luminescence units) (Scl-70 [19]): 50; Athena reading (relative luminescence units) (Centromere B [20]): 208; Athena reading (relative luminescence units) (Histones [21]): 154; Athena reading (relative luminescence units) (RNP (ribonucleoprotein) [22]): 40; Athena reading (relative luminescence units) (Sm (Smith antigen) [23]): 184; Athena reading (relative luminescence units) (Jo-1 [24]): 7; Athena reading (relative luminescence units) (SSA [25]): 44; Athena reading (relative luminescence units) (Scl-70 [26]): 31
